Tests used:
[1] = target: T1, human FcγRIIa type R (allotype R131) extracellular domain with C-terminal His tag (human, UniProt P12318 34-217); assay: SPR (Biacore), antibody captured, FcγR analyte
T1 construct: extracellular domain; also called FcγRIIaR; FcγRIIa R type; not shown: His tag at the C terminus
T1 sequence (looked up): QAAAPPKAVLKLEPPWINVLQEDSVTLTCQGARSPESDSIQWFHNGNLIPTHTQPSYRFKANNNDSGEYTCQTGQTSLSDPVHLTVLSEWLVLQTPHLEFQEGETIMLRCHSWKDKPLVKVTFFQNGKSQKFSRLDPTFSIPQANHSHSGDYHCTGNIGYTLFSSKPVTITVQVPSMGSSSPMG

[2] = target: T2, human FcγRIIb extracellular domain with C-terminal His tag (human, UniProt P31994 43-217); assay: SPR (Biacore), ratio of KDs
T2 construct: extracellular domain
T2 sequence (looked up): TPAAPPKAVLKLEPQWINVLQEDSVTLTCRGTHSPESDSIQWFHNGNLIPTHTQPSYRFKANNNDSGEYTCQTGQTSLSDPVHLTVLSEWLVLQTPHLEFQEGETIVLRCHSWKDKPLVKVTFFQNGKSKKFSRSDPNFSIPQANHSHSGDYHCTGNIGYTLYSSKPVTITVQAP

[3] = target: T3, human FcγRIIa type H extracellular domain with C-terminal His tag (human, UniProt P12318 34-217); assay: SPR (Biacore)
T3 construct: extracellular domain; also called FcγRIIaH; FcγRIIa(H)
T3 sequence (looked up): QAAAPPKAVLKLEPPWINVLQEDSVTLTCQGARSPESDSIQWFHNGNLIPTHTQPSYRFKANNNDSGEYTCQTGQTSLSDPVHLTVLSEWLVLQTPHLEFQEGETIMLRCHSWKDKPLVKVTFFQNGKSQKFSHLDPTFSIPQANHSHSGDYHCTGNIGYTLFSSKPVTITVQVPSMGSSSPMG

[4] = target: T4, human FcγRIa extracellular domain with C-terminal His tag (human, UniProt P12314 16-292); assay: SPR (Biacore)
T4 construct: extracellular domain
T4 sequence (P12314 16-292): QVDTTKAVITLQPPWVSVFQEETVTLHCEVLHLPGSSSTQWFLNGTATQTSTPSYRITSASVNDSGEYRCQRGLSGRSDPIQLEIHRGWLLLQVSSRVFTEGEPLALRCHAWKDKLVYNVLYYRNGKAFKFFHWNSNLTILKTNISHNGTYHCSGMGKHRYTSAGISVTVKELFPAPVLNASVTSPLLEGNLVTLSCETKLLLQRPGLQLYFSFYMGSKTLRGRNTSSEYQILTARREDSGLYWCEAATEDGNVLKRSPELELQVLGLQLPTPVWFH

[5] = target: T2, human FcγRIIb extracellular domain with …; assay: SPR (Biacore)
[6] = target: T5, human FcγRIIa type R extracellular domain with C-terminal His tag (human, UniProt P12318 34-217); assay: SPR (Biacore)
T5 construct: extracellular domain; also called FcγRIIaR; FcγRIIa(R)
T5 sequence (looked up): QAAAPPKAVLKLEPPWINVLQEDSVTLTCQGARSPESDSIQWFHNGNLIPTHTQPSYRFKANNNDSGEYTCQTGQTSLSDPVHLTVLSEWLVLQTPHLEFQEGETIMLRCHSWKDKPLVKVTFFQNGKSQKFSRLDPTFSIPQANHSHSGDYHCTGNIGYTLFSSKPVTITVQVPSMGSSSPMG

[7] = target: T2, human FcγRIIb extracellular domain with …; assay: SPR (Biacore), parent IL6R-B3/IL6R-L
[8] = target: T5, human FcγRIIa type R extracellular …; assay: SPR (Biacore), parent IL6R-B3/IL6R-L
[9] = target: T6, human FcγRIIIa type V (allotype V158) extracellular domain with C-terminal His tag (human, UniProt P08637 17-208); assay: SPR (Biacore), antibody captured, FcγR analyte
T6 construct: extracellular domain; also called FcγRIIIaV; FcγRIIIa V type; not shown: His tag at the C terminus
T6 sequence (P08637 17-208 F176V): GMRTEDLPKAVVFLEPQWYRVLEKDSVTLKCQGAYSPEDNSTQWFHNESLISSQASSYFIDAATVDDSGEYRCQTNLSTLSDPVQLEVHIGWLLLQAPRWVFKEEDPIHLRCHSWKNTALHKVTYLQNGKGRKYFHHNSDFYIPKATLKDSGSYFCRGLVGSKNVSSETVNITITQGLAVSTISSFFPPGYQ

B1: IL6R-BP186/IL6R-L (antibody, human IgG1, kappa)
heavy: QVQLQESGPGLVKPSETLSLTCAVSGHSISHDHAWSWVRQPPGEGLEWIGFISYSGITNYNPSLQGRVTISRDNSKNTLYLQMNSLRAEDTAVYYCARSLARTTAMDYWGEGTLVTVSSASTKGPSVFPLAPSSKSTSGGTAALGCLVKDYFPEPVTVSWNSGALTSGVHTFPAVLQSSGLYSLSSVVTVPSSSLGTQTYICNVNHKPSNTKVDKKVEPKSCDKTHTCPPCPAPDYLGDDSVFLFPPKPKDTLMISRTPEVTCVVVDVSHEDGEVKFNWYVDGVEVHNAKTKPREEQDNSTYRVVSVLTVLHQDWLNGKEYKCKVSNAALPKPIEKTISKAKGQPREPQVYTLPPSRDELTKNQVSLTCLVKGFYPSDIAVEWESNGQPENNYKTTPPVLDSDGSFFLYSKLTVDKSRWQQGNVFSCSVMHEALHNHYTQESLSLSP
light: not shown
notes: copies: 2 + 2
Kd [1]: 960 nM

B2: IL6R-BP488/IL6R-L (antibody, human IgG1, kappa)
heavy: QVQLQESGPGLVKPSETLSLTCAVSGHSISHDHAWSWVRQPPGEGLEWIGFISYSGITNYNPSLQGRVTISRDNSKNTLYLQMNSLRAEDTAVYYCARSLARTTAMDYWGEGTLVTVSSASTKGPSVFPLAPSSKSTSGGTAALGCLVKDYFPEPVTVSWNSGALTSGVHTFPAVLQSSGLYSLSSVVTVPSSSLGTQTYICNVNHKPSNTKVDKKVEPKSCDKTHTCPPCPAPDLLGDDSVFLFPPKPKDTLMISRTPEVTCVVIDVAEEDGEVKFNWYVDGVEVHNAKTKPREEQDNSTYRVVSVLTVLHQDWLNGKEYKCKVSNKALPRPIEKTISKAKGQPREPQVYTLPPSRDELTKNQVSLTCLVKGFYPSDIAVEWESNGQPENNYKTTPPVLDSDGSFFLYSKLTVDKSRWQQGNVFSCSVMHEALHNHYTQESLSLSP
light: not shown
notes: copies: 2 + 2
KD(IIaH)/KD(IIb) [2]: 865 | KD(IIaR)/KD(IIb) [2]: 40.1 | Kd [3]: 1600 nM | Kd [4]: 2.2 nM | Kd [5]: 1.9 nM | Kd [6]: 74 nM | KD(IIb) parent/KD(IIb) altered polypeptide [7]: 1680 | KD(IIaR) parent/KD(IIaR) altered polypeptide [8]: 14.8

B3: IL6R-BP556/IL6R-L (antibody, human IgG1, kappa)
heavy: QVQLQESGPGLVKPSETLSLTCAVSGHSISHDHAWSWVRQPPGEGLEWIGFISYSGITNYNPSLQGRVTISRDNSKNTLYLQMNSLRAEDTAVYYCARSLARTTAMDYWGEGTLVTVSSASTKGPSVFPLAPSSKSTSGGTAALGCLVKDYFPEPVTVSWNSGALTSGVHTFPAVLQSSGLYSLSSVVTVPSSSLGTQTYICNVNHKPSNTKVDKKVEPKSCDKTHTCPPCPAPELLGDDSVFLFPPKPKDTLMISRTPEVTCVVIDVGEEDGEVKFNWYVDGVEVHNAKTKPREEQDNSTYRVVSVLTVLHQDWLNGKEYKCKVSNKALPRPIEKTISKAKGQPREPQVYTLPPSRDELTKNQVSLTCLVKGFYPSDIAVEWESNGQPENNYKTTPPVLDSDGSFFLYSKLTVDKSRWQQGNVFSCSVMHEALHNHYTQESLSLSP
light: not shown
notes: copies: 2 + 2
KD(IIaH)/KD(IIb) [2]: 692 | KD(IIaR)/KD(IIb) [2]: 35.4 | Kd [3]: 5800 nM | Kd [4]: 43 nM | Kd [5]: 8.4 nM | Kd [6]: 300 nM | KD(IIb) parent/KD(IIb) altered polypeptide [7]: 370 | KD(IIaR) parent/KD(IIaR) altered polypeptide [8]: 3.7

B4: IL6R-BP213/IL6R-L (antibody, human IgG1, kappa)
heavy: QVQLQESGPGLVKPSETLSLTCAVSGHSISHDHAWSWVRQPPGEGLEWIGFISYSGITNYNPSLQGRVTISRDNSKNTLYLQMNSLRAEDTAVYYCARSLARTTAMDYWGEGTLVTVSSASTKGPSVFPLAPSSKSTSGGTAALGCLVKDYFPEPVTVSWNSGALTSGVHTFPAVLQSSGLYSLSSVVTVPSSSLGTQTYICNVNHKPSNTKVDKKVEPKSCDKTHTCPPCPAPDLLGGDSVFLFPPKPKDTLMISRTPEVTCVVVDVSDEDGEVKFNWYVDGVEVHNAKTKPREEQYNSTYRVVSVLTVLHQDWLNGKEYKCKVSNKALPRPIEKTISKAKGQPREPQVYTLPPSRDELTKNQVSLTCLVKGFYPSDIAVEWESNGQPENNYKTTPPVLDSDGSFFLYSKLTVDKSRWQQGNVFSCSVMHEALHNHYTQESLSLSP
light: not shown
notes: copies: 2 + 2
Kd [9]: 63000 nM

B5: IL6R-BP207/IL6R-L (antibody, human IgG1, kappa)
heavy: QVQLQESGPGLVKPSETLSLTCAVSGHSISHDHAWSWVRQPPGEGLEWIGFISYSGITNYNPSLQGRVTISRDNSKNTLYLQMNSLRAEDTAVYYCARSLARTTAMDYWGEGTLVTVSSASTKGPSVFPLAPSSKSTSGGTAALGCLVKDYFPEPVTVSWNSGALTSGVHTFPAVLQSSGLYSLSSVVTVPSSSLGTQTYICNVNHKPSNTKVDKKVEPKSCDKTHTCPPCPAPDLLGGDSVFLFPPKPKDTLMISRTPEVTCVVVDVSHEDPEVKFNWYVDGVEVHNAKTKPREEQYNSTYRVVSVLTVLHQDWLNGKEYKCKVSNKALPRPIEKTISKAKGQPREPQVYTLPPSRDELTKNQVSLTCLVKGFYPSDIAVEWESNGQPENNYKTTPPVLDSDGSFFLYSKLTVDKSRWQQGNVFSCSVMHEALHNHYTQESLSLSP
light: not shown
notes: copies: 2 + 2
Kd [9]: 65000 nM

B6: IL6R-BP199/IL6R-L (antibody, human IgG1, kappa)
heavy: QVQLQESGPGLVKPSETLSLTCAVSGHSISHDHAWSWVRQPPGEGLEWIGFISYSGITNYNPSLQGRVTISRDNSKNTLYLQMNSLRAEDTAVYYCARSLARTTAMDYWGEGTLVTVSSASTKGPSVFPLAPSSKSTSGGTAALGCLVKDYFPEPVTVSWNSGALTSGVHTFPAVLQSSGLYSLSSVVTVPSSSLGTQTYICNVNHKPSNTKVDKKVEPKSCDKTHTCPPCPAPDLLGGDSVFLFPPKPKDTLMISRTPEVTCVVVDVSHEDPEVKFNWYVDGVEVHNAKTKPREEQYNSTYRVVSVLTVLHQDWLNGKEYKCKVSNDALPRPIEKTISKAKGQPREPQVYTLPPSRDELTKNQVSLTCLVKGFYPSDIAVEWESNGQPENNYKTTPPVLDSDGSFFLYSKLTVDKSRWQQGNVFSCSVMHEALHNHYTQESLSLSP
light: not shown
notes: copies: 2 + 2
Kd [9]: 61000 nM

B7: IL6R-BP205/IL6R-L (antibody, human IgG1, kappa)
heavy: QVQLQESGPGLVKPSETLSLTCAVSGHSISHDHAWSWVRQPPGEGLEWIGFISYSGITNYNPSLQGRVTISRDNSKNTLYLQMNSLRAEDTAVYYCARSLARTTAMDYWGEGTLVTVSSASTKGPSVFPLAPSSKSTSGGTAALGCLVKDYFPEPVTVSWNSGALTSGVHTFPAVLQSSGLYSLSSVVTVPSSSLGTQTYICNVNHKPSNTKVDKKVEPKSCDKTHTCPPCPAPDLLGGDSVFLFPPKPKDTLMISRTPEVTCVVVDVSHEDGEVKFNWYVDGVEVHNAKTKPREEQDNSTYRVVSVLTVLHQDWLNGKEYKCKVSNKALPRPIEKTISKAKGQPREPQVYTLPPSRDELTKNQVSLTCLVKGFYPSDIAVEWESNGQPENNYKTTPPVLDSDGSFFLYSKLTVDKSRWQQGNVFSCSVMHEALHNHYTQESLSLSP
light: not shown
notes: copies: 2 + 2
Kd [9]: 68000 nM

B8: IL6R-BP190/IL6R-L (antibody, human IgG1, kappa)
heavy: QVQLQESGPGLVKPSETLSLTCAVSGHSISHDHAWSWVRQPPGEGLEWIGFISYSGITNYNPSLQGRVTISRDNSKNTLYLQMNSLRAEDTAVYYCARSLARTTAMDYWGEGTLVTVSSASTKGPSVFPLAPSSKSTSGGTAALGCLVKDYFPEPVTVSWNSGALTSGVHTFPAVLQSSGLYSLSSVVTVPSSSLGTQTYICNVNHKPSNTKVDKKVEPKSCDKTHTCPPCPAPELLGDDSVFLFPPKPKDTLMISRTPEVTCVVVDVSDEDGEVKFNWYVDGVEVHNAKTKPREEQYNSTYRVVSVLTVLHQDWLNGKEYKCKVSNKALPKPIEKTISKAKGQPREPQVYTLPPSRDELTKNQVSLTCLVKGFYPSDIAVEWESNGQPENNYKTTPPVLDSDGSFFLYSKLTVDKSRWQQGNVFSCSVMHEALHNHYTQESLSLSP
light: not shown
notes: copies: 2 + 2
Kd [9]: 45000 nM

Reference: US20220389118A1 (Chugai, published 2022)
